Results published in patent US20140356364A1 (AMPLIMMUNE, published 2014).

T1: Human B7-H4 protein antigen (coated on ELISA plates) (human, UniProt Q7Z7D3 25-259, limits assumed)
T1 construct: also called B7-H4 antigen; human B7-H4 antigen
T1 sequence: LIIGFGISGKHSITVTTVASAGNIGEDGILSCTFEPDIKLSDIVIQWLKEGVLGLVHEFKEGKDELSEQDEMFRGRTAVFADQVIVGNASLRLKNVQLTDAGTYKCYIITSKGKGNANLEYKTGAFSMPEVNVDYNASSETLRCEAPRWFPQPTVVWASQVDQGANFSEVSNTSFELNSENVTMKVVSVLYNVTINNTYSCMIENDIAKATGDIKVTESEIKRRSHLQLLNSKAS

T2: B7-DChIg construct (extracellular domain of human DC linked to the hinge and Fc region of a human IgG1) (human, UniProt Q9BQ51 20-220)
T2 construct: extracellular domain; Specificity control antigen in the plate-based assay; not shown: human IgG1 hinge and Fc region
T2 sequence (looked up): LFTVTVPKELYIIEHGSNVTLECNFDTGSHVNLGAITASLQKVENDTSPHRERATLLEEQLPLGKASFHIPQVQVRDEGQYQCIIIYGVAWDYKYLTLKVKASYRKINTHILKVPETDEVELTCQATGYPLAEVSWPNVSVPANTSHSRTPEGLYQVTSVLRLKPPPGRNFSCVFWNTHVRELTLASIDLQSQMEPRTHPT

T3: human B7-H4Ig (B7-H4hIg) (human, UniProt Q7Z7D3 25-259)
T3 construct: also called B7-H4Ig construct; not shown: Ig (Fc) part of the 'hIg' construct
T3 sequence: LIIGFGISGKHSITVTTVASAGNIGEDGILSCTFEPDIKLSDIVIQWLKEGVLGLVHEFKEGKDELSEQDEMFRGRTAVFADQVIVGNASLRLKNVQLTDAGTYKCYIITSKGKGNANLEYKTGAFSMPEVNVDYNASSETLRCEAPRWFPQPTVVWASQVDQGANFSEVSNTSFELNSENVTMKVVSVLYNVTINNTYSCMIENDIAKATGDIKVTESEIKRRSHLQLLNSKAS

T4: human B7-H4 expressed on the surface of stably transfected HEK293 cells (human, UniProt Q7Z7D3 25-282)
T4 construct: also called 293T.B7-H4 cells; human B7-H4 arrayed on the surface of a live cell
T4 sequence: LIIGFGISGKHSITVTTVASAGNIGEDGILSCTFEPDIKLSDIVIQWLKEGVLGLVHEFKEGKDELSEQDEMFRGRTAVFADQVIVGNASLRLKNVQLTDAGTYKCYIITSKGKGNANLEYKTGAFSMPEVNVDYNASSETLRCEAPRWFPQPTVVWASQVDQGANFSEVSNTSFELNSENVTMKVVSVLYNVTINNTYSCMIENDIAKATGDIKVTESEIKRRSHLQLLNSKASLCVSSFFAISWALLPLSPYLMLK


What was measured:
[1] = molecular target: T1, Human B7-H4 protein antigen (coated on …); assay: ELISA, conditioned medium on coated human B7-H4 antigen, anti-Fc-HRP/TMB
[2] = molecular target: T1, Human B7-H4 protein antigen (coated on …); assay: ELISA, conditioned medium on coated human B7-H4 antigen, anti-Fc-HRP, OD650
Experimental: Human B7-H4 protein antigen and control antigen were coated onto 96-well ELISA plates. The plates are then blocked with 3% BSA, and washed in PBS.
The conditioned media (4 days post transfection) were then tested for antigen binding in the 96-well ELISA. Anti-Fc-HRP was used as the detecting antibody. Plates were washed with PBS, and TMB (3,3′,5,5′-tetramethylbenzidine) was added for HRP color reaction. Once color developed, the OD₆₅₀ in each well was determined on an absorbance microplate reader.

[3] = molecular target: T2, B7-DChIg construct (extracellular …); assay: plate-based ELISA, hybridoma supernatant on coated B7-DChIg
Experimental: (§1) Serial dilutions were made from H74 (a commercially available anti-B7-H4 antibody), 2D1, 2E11 and 2H9 stock solutions and added to 96-well ELISA plates coated with B7-H4hIg or B7-DChIg. After incubation and wash, horseradish peroxidase (HRP) conjugated anti-mouse IgG antibody was added to the plates. After incubation and wash, 3,3′,5,5′-Tetramethylbenzidine (TMB) substrate was added. The colorimetric development was stopped by H₂SO₄ stop solution and read with a plate reader measuring absorbance at a 450 nm wavelength.
(§2) A plate-based binding assay using the B7-H4hIg construct was employed to capture the elicited antibody; antibodies were then characterized as being either IgG or IgM. As a specificity control, antibodies were also subjected to capture with a B7-DChIg construct (comprising the extracellular domain (ECD) of human DC linked to the hinge and Fc region of a human IgG1) (“B7-DChIg”) and the extent of IgG capable of binding was measured.

human B7-H4Ig (B7-H4hIg) = molecular target: T3, human B7-H4Ig (B7-H4hIg); assay: plate-based ELISA, hybridoma supernatant on coated B7-H4hIg
Experimental: as §1, §2

[4] = molecular target: T4, human B7-H4 expressed on the surface of …; assay: flow cytometry, hybridoma supernatant on HEK293 cells expressing human B7-H4, APC anti-mouse detection
Experimental: Antibodies 2D1, 2E11 and 2H9 were used either un-diluted (Neat), or diluted at 1:3, 1:9 and 1:27, to stain 293T.B7-H4 cells. For binding detection, APC labeled anti-mouse IgG antibody was utilized followed by FACS analysis of APC positive cells. H74 (a commercially available anti-B7-H4 antibody) at 1 μg/mL was used as positive control. Negative control was 1 μg/mL of mIgG1. 293T.B7-H4 cells incubated with APC labeled anti-mouse IgG antibody (DAM APC only), and parent 293 T cells stained with un-diluted 2D1 (Neat [293T]) further served as negative binding controls.
Neat and diluted hybridoma supernatants were then tested for the ability of their antibodies to bind to such cells or to control […] HEK293 cells. After washing, bound antibody was detected with allophycocyanin (APC)-conjugated, anti-mouse antibodies and the mean fluorescent intensity of the cells was determined (FIG. 3).

Row | OD650 [1] [OD650] | binding result [3] | Binder | other results
1 | 1.12 | – | recombinant chimeric anti-B7-H4 antibody 2D1 (2D1 heavy chain / 2D1 light chain, human IgG4 S228P) (antibody, V domains shown, tested as CHO conditioned medium; also called 2D1 HC + 2D1 LC) VH: EVQLVESGGGLVKPGGSLKLSCAASGFTFNSHGMSWVRQTPEKRLDWVATISDGGTYTYYPVNVKGRFTISRDNAKNNLYLQMSHLKSEDTAMYYCARDGGGGAYWGQGTLVTVSA VL: DVVMTQTPLSLPVSLGDQASISCRSSHSLVHSNGNTYLHWYLQKPGQSPNLLIYIVSNRFSGVPDRFSGSGSGTDFTLKISRVEAEDLGVYFCSQSTHVPPTFGAGTKLELKR | –
2 | 0.02 | – | recombinant antibody of 2H9 heavy chain and 2D1 light chain (human IgG4 S228P) (antibody, V domains shown, Mixed-chain combination tested as CHO conditioned medium; also called 2H9 HC + 2D1 LC) VH: EVQLVESGGNLVKPGGSLKLSCAASGFTFSNSAMSWVRQTPEKRLEWVATISDGGRYTYYPDNVKGRFTISRDNAKNNLYLQMSHLKSEDTALYYCARDRPHWYFDVWGTGATVTVSS VL: DVVMTQTPLSLPVSLGDQASISCRSSHSLVHSNGNTYLHWYLQKPGQSPNLLIYIVSNRFSGVPDRFSGSGSGTDFTLKISRVEAEDLGVYFCSQSTHVPPTFGAGTKLELKR | binding result [2]: no binding
3 | 0.06 | – | recombinant antibody of 2D1 heavy chain and 2H9 light chain (human IgG4 S228P) (antibody, V domains shown, Mixed-chain combination tested as CHO conditioned medium; also called 2D1 HC + 2H9 LC) VH: EVQLVESGGGLVKPGGSLKLSCAASGFTFNSHGMSWVRQTPEKRLDWVATISDGGTYTYYPVNVKGRFTISRDNAKNNLYLQMSHLKSEDTAMYYCARDGGGGAYWGQGTLVTVSA VL: DIVLTQSPASLAVSLGQRATISCRASESIDNYGISFMHWYQQKPGQPPKLLIYRASNLESGIPARFSGSGSRTDFTLTINPVETDDVATYFCQQSDEGRTFGGGTKLEIKR | binding result [2]: no binding
4 | – | no binding | anti-human B7-H4 antibody 2D1 (murine hybridoma clone) (antibody, IgG2, V domains shown, Mouse hybridoma antibody tested as hybridoma supernatant; also called Anti-Human B7-H4 Clone 2D1) VH: EVQLVESGGGLVKPGGSLKLSCAASGFTFNSHGMSWVRQTPEKRLDWVATISDGGTYTYYPVNVKGRFTISRDNAKNNLYLQMSHLKSEDTAMYYCARDGGGGAYWGQGTLVTVSA VL: DVVMTQTPLSLPVSLGDQASISCRSSHSLVHSNGNTYLHWYLQKPGQSPNLLIYIVSNRFSGVPDRFSGSGSGTDFTLKISRVEAEDLGVYFCSQSTHVPPTFGAGTKLELK | –
5 | 1.15 | – | recombinant chimeric anti-B7-H4 antibody 2H9 (2H9 heavy chain / 2H9 light chain, human IgG4 S228P) (antibody, V domains shown, tested as CHO conditioned medium; also called 2H9 HC + 2H9 LC) VH: EVQLVESGGNLVKPGGSLKLSCAASGFTFSNSAMSWVRQTPEKRLEWVATISDGGRYTYYPDNVKGRFTISRDNAKNNLYLQMSHLKSEDTALYYCARDRPHWYFDVWGTGATVTVSS VL: DIVLTQSPASLAVSLGQRATISCRASESIDNYGISFMHWYQQKPGQPPKLLIYRASNLESGIPARFSGSGSRTDFTLTINPVETDDVATYFCQQSDEGRTFGGGTKLEIKR | –
6 | – | no binding | anti-human B7-H4 antibody 2H9 (murine hybridoma clone) (antibody, IgG1, V domains shown, Mouse hybridoma antibody tested as hybridoma supernatant; IgG1-producing clone; also called Anti-Human B7-H4 Clone 2H9) VH: EVQLVESGGNLVKPGGSLKLSCAASGFTFSNSAMSWVRQTPEKRLEWVATISDGGRYTYYPDNVKGRFTISRDNAKNNLYLQMSHLKSEDTALYYCARDRPHWYFDVWGTGATVTVSS VL: DIVLTQSPASLAVSLGQRATISCRASESIDNYGISFMHWYQQKPGQPPKLLIYRASNLESGIPARFSGSGSRTDFTLTINPVETDDVATYFCQQSDEGRTFGGGTKLEIK | –
7 | – | no binding | anti-human B7-H4 antibody 2E11 (murine hybridoma clone) (antibody, IgG1, V domains shown, Mouse hybridoma antibody tested as hybridoma supernatant; IgG1-producing clone; also called Anti-Human B7-H4 Clone 2E11) VH: EVKLVESEGGLVQPGSSMKLSCTASGFKFTDYYMAWVRQVPEKGLEWVANINYDGSSTYYLDSLKSRFIISRDNAKNILYLQMNSLKSEDTATYYCARKGYFDYWGQGTTLTVSS VL: DIVMSQSPSSLAVSVGEKVTVSCKSSQSLLYSTNQRTYLAWFQQKPGQSPKLLIYWASTRESGVPDRFTGSGSGTDFTLTISSVKAEDLAVYYCQQYYNYPLTFGTGTKLELK | binding result (human B7-H4Ig (B7-H4hIg)): binds; binding result [4]: binds
